Experimental data as given in publication PMC8892516, “Intragenic suppressors unravel the role of the SCREAM ACT-like domain for bHLH partner selectivity in stomatal development” (Proceedings of the National Academy of Sciences of the …, 2022).

T1: GST-fused SCRMΔC (1-404) (Arabidopsis thaliana, UniProt Q9LSE2 1-404)
T1 construct: SCREAM (SCRM, ICE1), Arabidopsis thaliana, At3G26744, residues 1-404 (lacks the C-terminal ACTL domain); pGEX-4T-1; GST kept because the protein was loaded on anti-GST probes for BLI; also called SCRM1ΔC; source: E. coli BL21, purified (glutathione agarose resin); not shown: GST, N-terminal, kept
T1 sequence (looked up): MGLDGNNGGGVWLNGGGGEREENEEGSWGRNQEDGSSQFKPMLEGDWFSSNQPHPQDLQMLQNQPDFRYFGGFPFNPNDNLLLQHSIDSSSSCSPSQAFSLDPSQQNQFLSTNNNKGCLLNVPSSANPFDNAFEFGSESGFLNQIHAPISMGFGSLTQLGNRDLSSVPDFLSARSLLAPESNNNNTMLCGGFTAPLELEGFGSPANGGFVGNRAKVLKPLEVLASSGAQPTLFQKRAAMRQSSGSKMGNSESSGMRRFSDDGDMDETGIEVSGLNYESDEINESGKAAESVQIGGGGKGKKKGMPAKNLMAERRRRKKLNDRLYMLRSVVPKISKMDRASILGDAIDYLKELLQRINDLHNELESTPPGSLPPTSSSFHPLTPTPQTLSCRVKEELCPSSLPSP

T2: GST-fused SCRM (1-494) (Arabidopsis thaliana, UniProt Q9LSE2 1-494)
T2 construct: SCREAM (SCRM, also known as ICE1), Arabidopsis thaliana, At3G26744, residues 1-494; pGEX-4T-1 with thrombin site; GST kept because the protein was loaded on anti-GST probes for BLI; also called SCREAM; ICE1; source: E. coli BL21, purified (glutathione agarose resin); not shown: GST, N-terminal, kept
T2 sequence (looked up): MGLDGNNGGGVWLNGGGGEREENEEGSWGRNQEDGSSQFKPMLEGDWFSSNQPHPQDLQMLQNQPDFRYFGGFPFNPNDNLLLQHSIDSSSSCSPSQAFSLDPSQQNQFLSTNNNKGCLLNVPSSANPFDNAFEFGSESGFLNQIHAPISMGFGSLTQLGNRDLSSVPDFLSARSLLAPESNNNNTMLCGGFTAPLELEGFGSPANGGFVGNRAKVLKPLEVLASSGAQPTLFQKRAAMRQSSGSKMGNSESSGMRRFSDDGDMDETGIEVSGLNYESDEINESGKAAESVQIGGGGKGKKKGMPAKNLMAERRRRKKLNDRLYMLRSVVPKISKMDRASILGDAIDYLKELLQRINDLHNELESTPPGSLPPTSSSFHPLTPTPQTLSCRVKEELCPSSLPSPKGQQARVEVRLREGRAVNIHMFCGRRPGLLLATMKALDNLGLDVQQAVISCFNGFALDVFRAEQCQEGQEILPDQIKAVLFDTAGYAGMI

T3: SPCH-ACTL (285-364) (Arabidopsis thaliana, UniProt Q700C7 285-364)
T3 construct: also called SPCH ACTL domain; source: E. coli BL21, purified (glutathione resin, thrombin, Superdex-200); not shown: GST, N-terminal, cleaved
T3 sequence (looked up): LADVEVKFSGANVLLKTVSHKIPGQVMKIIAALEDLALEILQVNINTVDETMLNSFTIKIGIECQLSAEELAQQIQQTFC

B1: SPCH (ΔNSPCH, 98-364) (domain or fragment, Arabidopsis thaliana, UniProt Q700C7 98-364, looked up)
chain: GQQKMSHVTVERNRRKQMNEHLTVLRSLMPCFYVKRGDQASIIGGVVEYISELQQVLQSLEAKKQRKTYAEVLSPRVVPSPRPSPPVLSPRKPPLSPRINHHQIHHHLLLPPISPRTPQPTSPYRAIPPQLPLIPQPPLRSYSSLASCSSLGDPPPYSPASSSSSPSVSSNHESSVINELVANSKSALADVEVKFSGANVLLKTVSHKIPGQVMKIIAALEDLALEILQVNINTVDETMLNSFTIKIGIECQLSAEELAQQIQQTFC
notes: the only recombinant SPCH with bHLH domain that the methods list is ΔNSPCH (98-364); source: E. coli BL21, purified (glutathione resin, thrombin, Superdex-200); not shown: GST, N-terminal, cleaved
B2: SCRMΔC (1-404), GST removed (domain or fragment, Arabidopsis thaliana, UniProt Q9LSE2 1-404, looked up)
chain: T1 sequence (looked up)
notes: SCREAM (SCRM, ICE1), Arabidopsis thaliana, At3G26744, residues 1-404 (lacks the C-terminal ACTL domain); Used for ITC; the methods tell thrombin cleavage of the GST-fused proteins in general, not for ITC by name; also called SCRM1ΔC; source: E. coli BL21, purified (glutathione resin, thrombin, Superdex-200); not shown: GST, N-terminal, cleaved
B3: SCRM ACTL L484F (405-494) (domain or fragment, Arabidopsis thaliana, UniProt Q9LSE2 405-494, looked up)
chain: KGQQARVEVRLREGRAVNIHMFCGRRPGLLLATMKALDNLGLDVQQAVISCFNGFALDVFRAEQCQEGQEILPDQIKAVFFDTAGYAGMI
notes: SCREAM (SCRM, ICE1), Arabidopsis thaliana, At3G26744, C-terminal ACT-like domain, residues 405-494, with L484F (the methods print L485F); also called SCRM L484F ACTL; source: E. coli BL21, purified (glutathione resin, Superdex-200)
B4: FAMA (ΔNFAMA) (domain or fragment)
chain: ESQRMTHIAVERNRRKQMNEHLRVLRSLMPGSYVQRGDQASIIGGAIEFVRELEQLLQCLESQKRRRILGETGRDMTTTTTSSSSPITTVANQAQPLIITGNVTELEGGGGLREETAENKSCLADVEVKLLGFDAMIKILSRRRPGQLIKTIAALEDLHLSILHTNITTMEQTVLYSFNVKITSETRFTAEDIASSIQQIFSFIHANTNISGSSNLGNIVFT
modifications: Limits not printed. Start set by analogy with the printed ΔNSPCH 98-364 (one residue before the annotated bHLH). Runs to the native C-terminus. Tag or fusion carrier omitted.

Key:
Conditions in all cases: both partners purified
[1] = molecular target: T1, GST-fused SCRMΔC (1-404); test: BLI; as a1, samples incubated 30 min with a 1:4 molar ratio of the TMM promoter fragment containing the E-box; analyte 200-3.125 nM or 1000-25 nM
[2] = molecular target: T2, GST-fused SCRM (1-494); test: as above
[3] = molecular target: T1, GST-fused SCRMΔC (1-404); test: BLI; as a1, samples incubated 30 min with a 1:4 molar ratio of the TMM promoter fragment containing a mutant E-box (control); analyte 200-3.125 nM or 1000-25 nM
[4] = molecular target: T2, GST-fused SCRM (1-494); test: as above
[5] = molecular target: T1, GST-fused SCRMΔC (1-404); test: BLI; Octet Red96; anti-GST probes loaded with 500 nM GST-SCRM or GST-SCRMΔC; SPCH/MUTE/FAMA as analyte at 200-3.12 nM; 30 °C; 1x PBS, 0.02% Tween 20; no DNA; 1:1 model for kon, koff and KD, steady-state analysis for KD (SS)
[6] = molecular target: T2, GST-fused SCRM (1-494); test: as above
[7] = molecular target: B2; test: ITC; Malvern PEAQ-ITC; 40 µM SCRM/SCRMΔC injected into 4 µM SPCH/MUTE/FAMA; PBS, pH 7.2 (Table S1; methods: pH 7.4); 25 °C; single binding site model; means of two experiments
[8] = molecular target: T1, GST-fused SCRMΔC (1-404); test: BLI; as a1, samples incubated 30 min with a 1:4 molar ratio of the synthetic E-box repeat fragment; analyte 200-3.125 nM or 1000-25 nM
[9] = molecular target: T2, GST-fused SCRM (1-494); test: as above
[10] = molecular target: B4; test: ITC; Malvern PEAQ-ITC; 40 µM SCRM/SCRMΔC injected into 4 µM SPCH/MUTE/FAMA; PBS, pH 7.2 (Table S1; methods: pH 7.4); 25 °C; single binding site model; means of two experiments
[11] = molecular target: B1; test: as above
[12] = molecular target: T3, SPCH-ACTL (285-364); test: ITC; Malvern PEAQ-ITC; 150 µM SCRM ACTL/SCRM L484F ACTL injected into 15 µM SPCH ACTL/MUTE ACTL; PBS, pH 7.2 (Table S3; methods: pH 7.4); 25 °C; means of two experiments

Row | Kd [1] [nM] | koff [1] [s⁻¹] | kon [1] [M⁻¹ s⁻¹] | Kd [2] [nM] | koff [2] [s⁻¹] | kon [2] [M⁻¹ s⁻¹] | Kd [3] [nM] | koff [3] [s⁻¹] | kon [3] [M⁻¹ s⁻¹] | Kd [4] [nM] | koff [4] [s⁻¹] | kon [4] [M⁻¹ s⁻¹] | Kd [5] [nM] | koff [5] [s⁻¹] | kon [5] [M⁻¹ s⁻¹] | Kd [6] [nM] | koff [6] [s⁻¹] | kon [6] [M⁻¹ s⁻¹] | Kd [7] [nM] | Kd [8] [nM] | Binder | further results
1 | 49 ± 1.3 | 0.000208 | 4250 | 3.9 ± 0.3 | 0.000153 | 39200 | 78.2 ± 1.2 | 0.000183 | 2350 | 6.8 ± 0.5 | 0.000144 | 21200 | 59.1 ± 1.3 | 0.00012 | 2050 | 5.8 ± 0.5 | 0.000111 | 19200 | 61.1 ± 4.2 | 38.1 ± 1.9 | B1 | koff [8]: 0.000184 s⁻¹; kon [8]: 4850 M⁻¹ s⁻¹; Kd [9]: 7.2 ± 0.4 nM; koff [9]: 0.000354 s⁻¹; kon [9]: 49200 M⁻¹ s⁻¹
2 | – | – | – | – | – | – | – | – | – | – | – | – | – | – | – | – | – | – | – | – | B2 | stoichiometry N [10]: 0.96; stoichiometry N [11]: 0.95
3 | – | – | – | – | – | – | – | – | – | – | – | – | – | – | – | – | – | – | – | – | B3 | stoichiometry N [12]: 0.85
4 | 68.3 ± 1.4 | 0.000263 | 3910 | 9.2 ± 0.3 | 0.000395 | 43200 | 85 ± 1.8 | 0.000221 | 2610 | 15.5 ± 0.6 | 0.000282 | 18200 | 55.1 ± 1.3 | 0.00016 | 2910 | 7.2 ± 0.5 | 0.000159 | 22200 | 68.1 ± 5.2 | 59.1 ± 1.3 | B4 | koff [8]: 0.00023 s⁻¹; kon [8]: 3910 M⁻¹ s⁻¹; Kd [9]: 8.5 ± 0.7 nM; koff [9]: 0.000367 s⁻¹; kon [9]: 43200 M⁻¹ s⁻¹
